{"source": "paper PMC3888430", "about": "“Sorcin Links Calcium Signaling to Vesicle Trafficking, Regulates Polo-Like Kinase 1 and Is Necessary for Mitosis” (PLoS ONE, 2014)", "assay_in_all_cases": "peptide or protein array; ProtoArray human protein microarray (proteins arrayed in duplicate on nitrocellulose coated glass slide, native conditions) probed with 1 µM AlexaFluor 532-A2C sorcin in the presence of either 1 mM EDTA or 1 mM CaCl2", "conditions_in_all_cases": "both partners purified", "key": {"[1]": {"molecular_target": "T1, Aurora A kinase, human, on ProtoArray (human, UniProt O14965 1-403)", "T1 construct": "Aurora A kinase, human, full length protein of the ProtoArray; source: bought: ProtoArray human protein microarray (Life technologies), individually purified and arrayed", "T1 sequence (looked up)": "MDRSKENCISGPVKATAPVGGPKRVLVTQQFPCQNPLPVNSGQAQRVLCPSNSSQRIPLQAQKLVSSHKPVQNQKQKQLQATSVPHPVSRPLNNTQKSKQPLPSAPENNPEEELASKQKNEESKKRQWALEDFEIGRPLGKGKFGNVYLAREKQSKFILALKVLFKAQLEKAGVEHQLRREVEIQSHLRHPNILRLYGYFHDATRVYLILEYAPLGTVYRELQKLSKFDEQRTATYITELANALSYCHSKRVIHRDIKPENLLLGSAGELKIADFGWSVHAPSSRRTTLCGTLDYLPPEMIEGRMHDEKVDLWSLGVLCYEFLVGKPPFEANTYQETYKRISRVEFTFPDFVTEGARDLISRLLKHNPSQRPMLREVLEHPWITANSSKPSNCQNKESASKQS"}, "[2]": {"molecular_target": "T2, CSNK2A1, human, on ProtoArray (human, UniProt P68400 1-391)", "T2 construct": "CSNK2A1 (casein kinase II subunit alpha), human, full length protein of the ProtoArray; source: bought: ProtoArray human protein microarray (Life technologies), individually purified and arrayed", "T2 sequence (P68400 whole entry)": "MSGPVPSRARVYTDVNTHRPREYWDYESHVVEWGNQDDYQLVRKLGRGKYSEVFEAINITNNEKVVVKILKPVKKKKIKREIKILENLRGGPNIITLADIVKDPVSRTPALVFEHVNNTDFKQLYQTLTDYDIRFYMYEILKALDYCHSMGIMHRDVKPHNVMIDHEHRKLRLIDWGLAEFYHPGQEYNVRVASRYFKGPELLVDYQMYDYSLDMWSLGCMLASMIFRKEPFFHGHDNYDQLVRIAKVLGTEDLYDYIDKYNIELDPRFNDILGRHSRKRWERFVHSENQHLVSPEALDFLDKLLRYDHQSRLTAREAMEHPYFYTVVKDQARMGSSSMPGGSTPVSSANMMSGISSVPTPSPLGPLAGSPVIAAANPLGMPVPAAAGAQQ"}, "[3]": {"molecular_target": "T3, Aurora B kinase, human, on ProtoArray (human, UniProt Q96GD4 1-344)", "T3 construct": "Aurora B kinase, human, full length protein of the ProtoArray; source: bought: ProtoArray human protein microarray (Life technologies), individually purified and arrayed", "T3 sequence (Q96GD4 whole entry)": "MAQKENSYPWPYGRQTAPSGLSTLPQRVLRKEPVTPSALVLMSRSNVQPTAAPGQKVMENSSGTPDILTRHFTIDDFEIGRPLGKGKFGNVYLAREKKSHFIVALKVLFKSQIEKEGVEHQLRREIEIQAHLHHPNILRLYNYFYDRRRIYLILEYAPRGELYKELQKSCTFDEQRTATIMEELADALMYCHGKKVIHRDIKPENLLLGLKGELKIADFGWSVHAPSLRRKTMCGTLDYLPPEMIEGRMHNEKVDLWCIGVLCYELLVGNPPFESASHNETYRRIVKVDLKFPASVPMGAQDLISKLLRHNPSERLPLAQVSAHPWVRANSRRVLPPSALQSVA"}, "[4]": {"molecular_target": "T4, Annexin 11, human, on ProtoArray (human, UniProt P50995 1-505)", "T4 construct": "Annexin 11, human, full length protein of the ProtoArray; source: bought: ProtoArray human protein microarray (Life technologies), individually purified and arrayed", "T4 sequence (P50995 whole entry)": "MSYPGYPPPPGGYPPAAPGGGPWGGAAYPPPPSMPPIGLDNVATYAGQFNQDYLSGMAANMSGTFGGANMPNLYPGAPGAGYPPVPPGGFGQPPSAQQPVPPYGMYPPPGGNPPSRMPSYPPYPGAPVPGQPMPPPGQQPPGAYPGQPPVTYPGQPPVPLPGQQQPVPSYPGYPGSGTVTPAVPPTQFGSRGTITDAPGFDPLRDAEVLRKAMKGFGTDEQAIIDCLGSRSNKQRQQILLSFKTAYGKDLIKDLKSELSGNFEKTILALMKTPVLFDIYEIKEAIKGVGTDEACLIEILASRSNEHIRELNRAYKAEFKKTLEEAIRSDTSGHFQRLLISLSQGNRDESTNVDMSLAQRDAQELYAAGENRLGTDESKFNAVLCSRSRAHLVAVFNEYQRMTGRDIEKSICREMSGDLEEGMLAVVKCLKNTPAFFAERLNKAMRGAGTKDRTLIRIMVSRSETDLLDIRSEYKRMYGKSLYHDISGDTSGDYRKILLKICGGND"}, "[5]": {"molecular_target": "T5, Polo-like kinase 1 (PLK1), human, on ProtoArray (human, UniProt P53350 1-603)", "T5 construct": "Polo-like kinase 1, human, full length protein of the ProtoArray; In the functional row this id stands for purified recombinant PLK1 bought from Cell Signaling Technology (#7728); source: bought: ProtoArray human protein microarray (Life technologies), individually purified and arrayed", "T5 sequence (P53350 whole entry)": "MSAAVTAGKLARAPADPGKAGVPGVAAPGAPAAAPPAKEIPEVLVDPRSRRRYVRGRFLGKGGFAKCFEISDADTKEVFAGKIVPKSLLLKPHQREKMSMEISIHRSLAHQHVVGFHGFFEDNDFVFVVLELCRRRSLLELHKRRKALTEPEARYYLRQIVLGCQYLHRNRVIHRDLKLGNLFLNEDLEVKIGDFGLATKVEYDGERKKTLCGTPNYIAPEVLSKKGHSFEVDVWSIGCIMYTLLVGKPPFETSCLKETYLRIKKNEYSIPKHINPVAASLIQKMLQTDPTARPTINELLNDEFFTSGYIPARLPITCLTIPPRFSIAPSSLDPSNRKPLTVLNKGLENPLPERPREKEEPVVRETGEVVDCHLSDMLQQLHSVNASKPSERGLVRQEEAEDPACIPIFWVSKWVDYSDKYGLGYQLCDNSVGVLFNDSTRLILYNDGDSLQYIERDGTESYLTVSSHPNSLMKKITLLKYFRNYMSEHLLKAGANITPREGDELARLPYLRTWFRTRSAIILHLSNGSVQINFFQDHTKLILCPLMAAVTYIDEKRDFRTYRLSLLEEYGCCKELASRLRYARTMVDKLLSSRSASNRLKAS"}, "[6]": {"molecular_target": "T6, CSNK2A2, human, on ProtoArray (human, UniProt P19784 1-350)", "T6 construct": "CSNK2A2 (casein kinase II subunit alpha'), human, full length protein of the ProtoArray; source: bought: ProtoArray human protein microarray (Life technologies), individually purified and arrayed", "T6 sequence (P19784 whole entry)": "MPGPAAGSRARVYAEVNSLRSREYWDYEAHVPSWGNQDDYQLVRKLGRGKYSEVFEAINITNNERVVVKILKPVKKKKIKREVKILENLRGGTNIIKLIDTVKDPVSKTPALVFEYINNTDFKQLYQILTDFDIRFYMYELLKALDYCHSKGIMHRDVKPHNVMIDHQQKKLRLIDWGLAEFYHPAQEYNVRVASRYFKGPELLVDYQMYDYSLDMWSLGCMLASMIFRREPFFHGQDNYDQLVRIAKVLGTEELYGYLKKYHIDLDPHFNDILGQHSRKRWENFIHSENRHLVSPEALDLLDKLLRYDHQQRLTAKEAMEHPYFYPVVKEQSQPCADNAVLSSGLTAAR"}}, "data": [{"binder": "AlexaFluor 532-A2C sorcin (natural protein, human, AlexaFluor 532 C5-maleimide on thiol groups (A2C mutant made for the conjugation), In the functional row this id stands for unlabelled human wt sorcin (HS) from the same expression system; also called A2C-sorcin-AlexaFluor 532 maleimide; source: E. coli BL21(DE3), purified according to Meyers et al; labelled with AlexaFluor 532 C5-maleimide) MCYPGHPGAGGGYYPGGYGGAPGGPAFPGQTQDPLYGYFAAVAGQDGQIDADELQRCLTQSGIAGGYKPFNLETCRLMVSMLDRDMSGTMGFNEFKELWAVLNGWRQHFISFDTDRSGTVDPQELQKALTTMGFRLSPQAVNSIAKRYSTNGKITFDDYIACCVKLRALTDSFRRRDTAQQGVVNFPYDDFIQCVMSV", "values": [{"measurement": "binding result", "setting": "[1]", "value": "binds"}, {"measurement": "binding result", "setting": "[2]", "value": "binds"}, {"measurement": "binding result", "setting": "[3]", "value": "binds"}, {"measurement": "binding result", "setting": "[4]", "value": "binds"}, {"measurement": "fold increase of the interaction with 1 mM calcium against EDTA", "setting": "[5]", "value": 1.5, "unit": "fold"}, {"measurement": "binding result", "setting": "[6]", "value": "binds"}]}]}
